Data from the nanobody polyreactivity screen of Harvey et al. (2022).

Experiment: yeast display, Sf9 membrane polyspecificity reagent, FACS + sequencing; frameworks hold sequencing errors
Outline: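 A nanobody's polyreactivity label depends on the gate it was sorted from. Yeast display cells were stained with 10% biotinylated, detergent-solubilized Sf9 membrane reagent for 1 hour at 4 °C, enriched on streptavidin microbeads and sorted by FACS. The low and high (top ~1%) gates were set on anti-HA fluorescence for expression and streptavidin fluorescence for reagent binding.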

Sequence | polyreactivity (PSR sort gate)
QVQLVESGRGLVQAGGSLRLSCAASGRIFTKNTMGWYRQAPGKERELVAAIRSRAGSTYYADSVKGRFTISRDNAKNTVYLQMNSLKPEDTAVYYCAVPWFRSVDFDYWGQGTQVTVSS | low polyreactivity
QVQLVESGGGLVQAGGSLRLSCAASGSTVVYYAMGWYRQAPGKERELVAAISSSGGTTYYADSVKGRFTISRDNAKNRVYLQMKSLKPEDTAVYYCAAPYASRGNEYWGQGTQVTVSS | high polyreactivity
QVQLVESGGGLVQAGGSLRLSCAASGFTFSKYAMGWYRQAPVKERELVATITRGGNTYYADSVKGRFTISRDNAKNTVYLQMNSLKPEDTAVYYCNTGRRNRLYDYDYWGQVTQVTVSS | high polyreactivity
QVQLVESGGGLVQAGGSLRLSCAASGSIFGQYAMGWYRQAPGKERELVAAITWDGTSTYYADSVKGRFTISRDNAKNTVYLQMNSLKPEDTAVYYCAADFYPYSWEEVDYWGQGTQVTVSS | low polyreactivity
QVQLVESGGGLVQAGGSLRLSCAASGFTFVYYAMGWYRQAPGKEREFVAAISLSGGSTYYADSVKGRFTISRDNAKNTVYLQMNSLKPEDTAVYYCATDWSLRIERDYGYWGQGTQVTVSS | low polyreactivity
QVQLVESGGGLVQAGGSLRLSCAASGFTFRTYAMGWYRQAPGKERELVAGISQGGGSTYYADSVKGRFTISRDNAKNTVYLQMKSLKTEVTAVYYCAKARNSNARFGYWGQGTQVTVSS | high polyreactivity
QVQLVESGGGLVQAGGSLRLSCAASGRTFEGYAMGWYRQAPGKERELVAAISGSSGSTYYADSVKGRFTISRDNAKNTVYLQMNSLKPEDTAVYYCNADYDWPGGSDYWGQGTQVTVSS | low polyreactivity
QVQLVESGGGLVQAGGSLRLSCAASGRIFSKYAMGWYRQAPGKERELVAAIRSGGRTYYADSVKGRFTISRDNAKNTVYLQMNSLKPEDTAVYYCAKGTFRYPFSFTFLGYDYWGQGTQVTVSS | high polyreactivity
QVQLVESGGGLVQAGGSLRLSCAASGFILAGYAMGWSRQAPGKERELVAAINSRGTRTYYADSVKGRFTISRDNAKNTVYLQMNSLKPEDTAVYYCAVHVWGTYGSWEYYYWGQGTQVTVSS | high polyreactivity
QVQLVESGGGLVQAGGRLRLSCAASGLIFYKYAMGWYRQAPGKERELVAAISSRTGSTSYADSVKGRFTISRDNAKNTVYLQMNSLKPEDTAVYYCAARPRYNEYGYWGQGTQVTVSS | high polyreactivity
QVQLVESGGGLVQAGGSLRLSCAASGSIFFAYVMGWYRQAPGKERELDAVITYSGGSTYYADSVKGRFTISRDNAKNTVYLQMNSLKPEDTAVYDCAADETSALDDYWGQGTQVTVSS | low polyreactivity
QVQLVESGGGLVQAGGSLRLSCAASGRTFRRYAMGWYRQAPGKERELVAAISRGANTNYADSVKGRFTISRDNAKNTVYLQMNSLKPEDTAVYYCNAKQAGYYFAFGYWGQGTQVTVSS | high polyreactivity
QVQLVESGGGLVQAGGSLRLSCAASGRIFVYNVMGRYRQAPGKERELVAAISWGTGSTYADSVKGRFTISRDNAKNTVYLQMNSLKPEDTAVYYCAADSFIPPYDHWGQGTQVTVSS | low polyreactivity
QVQLVESGGGLVQEGGSLRLSCAASGSIFKEYAMGWSRQAPGKERELVAAISTSGDITYYSDSVKGRFTISRDNAKNTVYLQMNSLKPEDTGVYYCAANYSLLRQYNRLDYWGQGTQLTVSS | low polyreactivity
QVQLVESGGGLVQAGGILRLSCAASGSTFDPNVMGWYRQAPGKERELVAAITWSGGSTSYADSVKGRFTISRDNAKNTVYLQMNSLKPEDTAVYYCAADWHSWRWGYYYWGQGTQVTVSS | low polyreactivity
QVQLVESGGGLVQAGGSLRLSCAASGIIFSWYAMGWYRQAPGKEREFVAAISKSGGRTYYADSVKGRFTISRDNAKNTVYLQMNSLKPEDTAVYYFATGISRDYIYIILRYDYWGQGTQVTVSS | low polyreactivity
QVQLVESGGGLVQAGGSLRLSCAASGRTFSDNAMGWYRQAPGKERELVAASSRSGGRTYYADSVKGRFTISRDNAKNTVYLQMNSLKPEDTAVYYCAAAPSVSGTRLYEYWGQGTQVTVSS | high polyreactivity
QVQLVESGGGLVQAGGSLRLSCAASGRTFYQNVMGWYRPAPGKERELVAAISQRGGRTYYADSVKGRFTISRDNAKNTVYLQMNSLKPEDTAVYYCNADSTVWPYDYWGQGTQVTVSS | low polyreactivity
QVQLVESGGGLVQAGGSLRLSCAASGITFGWNAMGWYRQAPGKEWELVAAITEDGYSTYYADSVKGRFTISRDNEKNTVYLQMNSLKPEDTAVYYCAAEYYDVYTYVQYDSWGQGTQVTVSS | high polyreactivity
QVQLVESGGGLVQAGGSLRLSCAASGRTFVSNAMGWYRQAPGKERELVAAISWSGSRTYYADSVKGRFTISRDNAKNTVYLQMNSLKPEDTAVYYCAAAKPKKSRGSAYEYWGQGTQVTVSS | high polyreactivity
QVQLVESGGGLVQAGGSLRLSCAASGSIFHPYAMGWYRQAPGKERELVAAISKSGGNTYYADSVKGRFTISRDNAKNTVYLQMNSLKPEDTAVYYCAALDYWGQGTQLTVSS | low polyreactivity
QVQLVESGGGLVQAGGSLRLSCAASGNILRGYAMGWYRQAPGKERELVAAIDTRGGRTNYADSVKGRFTISRDNAKNTVYLQMNSLKPEDTAVYYCNALGYYSFGHEYWGQGTQVTVSS | low polyreactivity
QVQLVESGGGLVQAGGSLRLSCAASGSTLSVYAKGSYIQAPGKEREFVASISSSVGRTFYADSVKGRFTISRDNANNTVYLQMNSLNQEDTAVYYCAARRRTFYASSSAINGYDYWRQGTQVTVSS | high polyreactivity
QVQLVESGGGLVQAGGSLRLSCAASGSIFIANAMGWYRQAPGKERELFAAITLNGGSTYYADSVKGRFTISRDNAKNTVYLQMNSLKPEDTAVYYCAADWVWVAPQYWIVEYDYRGQGTQVTVSS | low polyreactivity
QVQLVESGGGLVQAGGRLRLSCAASGSTLNRNAMGWYRQAPGKERELVAAIRVSGGSTYYSDSVKGRFTISRDNAKNTVYLQMNSLNPEDTAVYYCGTRYVRARWYGYWGEGTQVTVSS | high polyreactivity
QVQLVESGGGLVQAGGSLRLSCAASGSTFGLYTMGWYRQAPGKARELVAVINRSGGSTYYADSVKGRFTISRDNAKNTVYLQMNSLKPEDTAVYYCAAQRAVAGGRLDYWGQGTQVTVSS | high polyreactivity
QVQLVESGGGLVQAGGSLRLSCADSGSTYGGYAMGWYRQAPGKERELVAAISQSGGRTYYADSVKGRFTISRDNAKITVYFQMNSLKPEDTAVYYCAAYRTGYGRFTLDYWGQGSQVTVSS | high polyreactivity
QVQLVESGGGLVQAGGSLRLICAASGSIFRFYAMGWYRQAPGTERELVAAISKTGGRTYYADSVKGRFTISRDNAKNTFYLQMNSLKPEDTAVYYCAASIREGFYWGQGTQVTVSS | high polyreactivity
QVQLVESGGGLVQAGGSLRLSCAASGSSVYRYAMGWYRQAPGKERELVAAITWSGGSTYYADSVKGRFTISRDNAKNTVYLQMNSLKPEDSAVYYCAVEPFSNEFYYWGQGTQVTVSS | low polyreactivity
QVQLVESGGGLVQAGGSLRLSCAASGFIFGFYAMGWYRQAPWKERELVAAITSDGGTYYADSVKGRFTISRDNAKNTVYLQMNSLKPEDTAVYYCAADVLYEVFSWYVGYDYWGQGTQVTVSS | low polyreactivity
